Measurements published in patent publication US20260049138A1 (Chugai, published 2026).
Substitutions are numbered along the chain they refer to. Names and notes keep the numbering of the source.

B1: CE115HA000 T28D one-arm antibody (antibody, human IgG1, kappa, L234A L235A, N297A, name in Kabat numbering)
heavy: QVQLVESGGGVVQPGRSLRLSCAASGFDFSNAWMHWVRQAPGKGLEWVAQIKAKSNNYATYYAESVKGRFTISRDDSKNSLYLQMNSLKTEDTAVYYCRYVHYGAYYGVDAWGQGTTVTVSSASTKGPSVFPLAPSSKSTSGGTAALGCLVKDYFPEPVTVSWNSGALTSGVHTFPAVLQSSGLYSLSSVVTVPSSSLGTQTYICNVNHKPSNTKVDKKVEPKSCDKTHTCPPCPAPEAAGGPSVFLFPPKPKDTLMISRTPEVTCVVVDVSHEDPEVKFNWYVDGVEVHNAKTKPREEQYASTYRVVSVLTVLHQDWLNGKEYKCKVSNKALPAPIEKTISKAKGQPREPQVYTLPPSRCELTKNQVSLSCAVKGFYPSDIAVEWESNGQPENNYKTTPPVLDSDGSFFLVSKLTVDKSRWQQGNVFSCSVMHEALHNHYTQKSLSLSPDYKDDDDK
chain: EPKSSDKTHTCPPCPAPELLGGPSVFLFPPKPKDTLMISRTPEVTCVVVDVSHEDPEVKFNWYVDGVEVHNAKTKPREEQYNSTYRVVSVLTVLHQDWLNGKEYKCKVSNKALPAPIEKTISKAKGQPREPQVCTLPPSRDELTKNQVSLWCLVKGFYPSDIAVEWESNGQPENNYKTTPPVLDSDGSFFLYSKLTVDKSRWQQGNVFSCSVMHEALHNRYTQKSLSLSP
light: DIVMTQSPLSLPVTPGEPASISCRSSQSLVHSNRNTYLHWYQQKPGQAPRLLIYKVSNRFSGVPDRFSGSGSGTDFTLKISRVEAEDVGVYYCGQGTQVPYTFGQGTKLEIKRTVAAPSVFIFPPSDEQLKSGTASVVCLLNNFYPREAKVQWKVDNALQSGNSQESVTEQDSKDSTYSLSSTLTLSKADYEKHKVYACEVTHQGLSSPVTKSFNRGEC
B2: CE115HA000 V11L one-arm antibody (antibody, human IgG1, kappa, L234A L235A, N297A, name in Kabat numbering)
heavy: B1 heavy with V11L, D28T
chain: B1 chain
light: B1 light
B3: CE115HA000 T57N one-arm antibody (antibody, human IgG1, kappa, L234A L235A, N297A, name in Kabat numbering)
heavy: B1 heavy with D28T, T60N
chain: B1 chain
light: B1 light
B4: CE115HA000 V95D one-arm antibody (antibody, human IgG1, kappa, L234A L235A, N297A, name in Kabat numbering)
heavy: B1 heavy with D28T, V101D
chain: B1 chain
light: B1 light
B5: CE115HA000 T57I one-arm antibody (antibody, human IgG1, kappa, L234A L235A, N297A, name in Kabat numbering)
heavy: B1 heavy with D28T, T60I
chain: B1 chain
light: B1 light
B6: CE115HA000 V95A one-arm antibody (antibody, human IgG1, kappa, L234A L235A, N297A, name in Kabat numbering)
heavy: B1 heavy with D28T, V101A
chain: B1 chain
light: B1 light
B7: CE115HA000 T28S one-arm antibody (antibody, human IgG1, kappa, L234A L235A, N297A, name in Kabat numbering)
heavy: B1 heavy with D28S
chain: B1 chain
light: B1 light
B8: CE115HA000 V95E one-arm antibody (antibody, human IgG1, kappa, L234A L235A, N297A, name in Kabat numbering)
heavy: B1 heavy with D28T, V101E
chain: B1 chain
light: B1 light
B9: CE115HA000 T57K one-arm antibody (antibody, human IgG1, kappa, L234A L235A, N297A, name in Kabat numbering)
heavy: B1 heavy with D28T, T60K
chain: B1 chain
light: B1 light
B10: CE115HA000 T57A one-arm antibody (antibody, human IgG1, kappa, L234A L235A, N297A, name in Kabat numbering)
heavy: B1 heavy with D28T, T60A
chain: B1 chain
light: B1 light

Biological target: T1, CD3ε homodimer protein (human, UniProt P07766 23-126, limits assumed, sulfo-tag or biotin label in the ECL assays; amine-coupled to the chip in SPR)
T1 construct: also called human CD3ε homodimer protein; CD3 (CD3ε)
Test: SPR Biacore T200; CD3ε homodimer on CM4 chip;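 note: Single-residue variant antibodies injected as analyte over CD3ε homodimer immobilized by amine coupling, run at 25 °C in HBS-EP+ buffer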

T1 sequence (P07766 23-126 limits assumed): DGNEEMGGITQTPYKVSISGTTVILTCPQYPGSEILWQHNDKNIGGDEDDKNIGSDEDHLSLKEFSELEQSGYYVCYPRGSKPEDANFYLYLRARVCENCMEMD

| Binder | ratio of amounts bound Z=Y/X (altered form / CE115HA000) |
| --- | --- |
| B1 | 0.56 |
| B2 | 1 |
| B3 | 0.97 |
| B4 | 0.24 |
| B5 | 0.61 |
| B6 | 0.11 |
| B7 | 0.91 |
| B8 | 0.24 |
| B9 | 1.32 |
| B10 | 0.98 |
